Laboratory results published in PMC9620997 (Gut Microbes, 2022).

Target: T1, 6xHis-tagged TssI2 (purified) (Vibrio fluvialis 85003, UniProt A0A1W6EUI3 1-1012)
T1 sequence: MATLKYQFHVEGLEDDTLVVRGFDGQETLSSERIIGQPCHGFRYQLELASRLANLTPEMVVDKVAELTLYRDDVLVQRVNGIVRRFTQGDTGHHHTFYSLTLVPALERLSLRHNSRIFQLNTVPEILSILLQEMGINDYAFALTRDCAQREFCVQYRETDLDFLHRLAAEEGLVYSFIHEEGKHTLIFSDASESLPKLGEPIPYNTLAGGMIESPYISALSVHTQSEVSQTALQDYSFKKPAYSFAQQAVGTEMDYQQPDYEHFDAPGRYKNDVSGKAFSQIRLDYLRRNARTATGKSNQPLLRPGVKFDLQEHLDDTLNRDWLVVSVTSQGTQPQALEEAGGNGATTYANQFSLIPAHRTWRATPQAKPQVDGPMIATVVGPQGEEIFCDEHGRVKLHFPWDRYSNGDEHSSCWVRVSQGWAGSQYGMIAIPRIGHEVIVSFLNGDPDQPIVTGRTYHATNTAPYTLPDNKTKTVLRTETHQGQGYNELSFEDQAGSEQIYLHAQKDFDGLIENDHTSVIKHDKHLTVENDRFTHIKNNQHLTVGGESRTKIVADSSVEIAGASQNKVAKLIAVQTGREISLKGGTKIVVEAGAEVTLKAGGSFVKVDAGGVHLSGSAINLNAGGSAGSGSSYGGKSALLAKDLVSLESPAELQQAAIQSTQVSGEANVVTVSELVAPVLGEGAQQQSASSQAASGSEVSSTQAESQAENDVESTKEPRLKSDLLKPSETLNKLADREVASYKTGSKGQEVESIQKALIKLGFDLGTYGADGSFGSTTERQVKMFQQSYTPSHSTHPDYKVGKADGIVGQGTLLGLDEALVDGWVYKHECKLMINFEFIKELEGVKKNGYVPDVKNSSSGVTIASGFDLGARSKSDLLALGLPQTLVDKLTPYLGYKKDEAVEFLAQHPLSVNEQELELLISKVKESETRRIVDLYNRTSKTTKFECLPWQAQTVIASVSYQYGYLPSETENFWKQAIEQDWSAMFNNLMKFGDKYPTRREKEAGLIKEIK
Experiment: ITC

B1: 6xHis-tagged TsiI2^19-127 (purified) (domain or fragment)
chain: FPTNEVYAYLDITSFNSSLIQKAARGQKHFSDLKIPNPVISKDTILIESEYWKYEMQFVKEDDSGIHVCFVDKAKWGTYDTQTPMIIRKYADEYVAIKMNSDVCEDFAK
Kd: 1.07 nM
